Test results from article PMC4031664 (Prion, 2013).

Molecular target: T1, tandem OR repeats of mouse PrP (Mus musculus)
T1 chain: PHGGSWGQPHGGSWGQ
Experiment: crystal structure

B1: Fab fragment of the monoclonal POM2 IgG (Fab, V domains shown)
VH: VKLQESGGEVVRPGTSVKVSCKASGYAFTNYLIEWVKQRPGQGLEWIGVINPGSGDTNYNEKFKGKATLTADKSSSTAYMQLNSLTSDDSAVYFCARSGAAAPTYYAMDYWGQGVSVTVSS
VL: DIVMTQSHKFMSTSVGDRVSITCKASQVGTALAWYQQKPGQSPKLLIYWASTRHTGVPDRFTGSGSGTDFTLTISNVQSEDLSDYFCQQYSSYPTFGGGTKLEIK
B1: binds.
